B1: Vesicle-associated membrane protein-associated protein SCS2 (Saccharomyces cerevisiae), P40075 (parent)
chain: MSAVEISPDVLVYKSPLTEQSTEYASISNNSDQTIAFKVKTTAPKFYCVRPNAAVVAPGETIQVQVIFLGLTEEPAADFKCRDKFLVITLPSPYDLNGKAVADVWSDLEAEFKQQAISKKIKVKYLISPDVHPAQNQNIQENKETVEPVVQDSEPKEVPAVVNEKEVPAEPETQPPVQVKKEEVPPVVQKTVPHENEKQTSNSTPAPQNQIKEAATVPAENESSSMGIFILVALLILVLGWFYR
partner: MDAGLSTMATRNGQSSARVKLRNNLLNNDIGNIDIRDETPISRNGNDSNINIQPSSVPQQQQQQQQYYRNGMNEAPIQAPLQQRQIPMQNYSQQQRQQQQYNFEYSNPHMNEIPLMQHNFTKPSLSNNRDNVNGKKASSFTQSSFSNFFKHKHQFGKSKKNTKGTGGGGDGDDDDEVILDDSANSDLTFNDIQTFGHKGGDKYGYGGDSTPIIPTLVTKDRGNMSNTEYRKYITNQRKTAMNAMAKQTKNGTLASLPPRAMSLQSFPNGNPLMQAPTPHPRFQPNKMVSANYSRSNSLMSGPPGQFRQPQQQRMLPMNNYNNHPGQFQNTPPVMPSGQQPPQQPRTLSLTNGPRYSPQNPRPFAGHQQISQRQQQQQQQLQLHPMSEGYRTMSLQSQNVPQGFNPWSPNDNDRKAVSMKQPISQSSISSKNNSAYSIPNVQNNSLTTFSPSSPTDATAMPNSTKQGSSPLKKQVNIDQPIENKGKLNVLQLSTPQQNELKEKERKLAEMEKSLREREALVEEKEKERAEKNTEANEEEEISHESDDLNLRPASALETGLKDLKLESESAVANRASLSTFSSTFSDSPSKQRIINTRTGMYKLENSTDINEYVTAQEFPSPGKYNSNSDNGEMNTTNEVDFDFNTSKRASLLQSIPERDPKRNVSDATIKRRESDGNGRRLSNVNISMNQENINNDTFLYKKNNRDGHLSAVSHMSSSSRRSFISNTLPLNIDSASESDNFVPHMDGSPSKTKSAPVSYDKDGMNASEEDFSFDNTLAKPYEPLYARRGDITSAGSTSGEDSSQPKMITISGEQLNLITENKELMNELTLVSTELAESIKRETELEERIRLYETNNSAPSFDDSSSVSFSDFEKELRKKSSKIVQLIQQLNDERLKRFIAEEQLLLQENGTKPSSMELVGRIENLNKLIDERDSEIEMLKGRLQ

Variants of: B1
Conditions: with ym11_yeast ym11, P39523

effect of a mutation on the interaction	Variant
disrupting interaction strength	T42A

From IntAct's records for PubMed 25083872
